B1: Protein Vpx (Simian immunodeficiency virus (isolate PBj14/BCL-3)), P19508 (parent)
chain: MSDPRERIPPGNSGEETIGEAFDWLDRTVEEINRAAVNHLPRELIFQVWRRSWEYWHDEMGMSVSYTKYRYLCLIQKAMFMHCKKGCRCLGGEHGAGGWRPGPPPPPPPGLA
B2: Protein Vpx (Human immunodeficiency virus type 2 subtype A (isolate Ghana-1)), P18045 (parent)
chain: MTDPRERVPPGNSGEETIGEAFEWLDRTIEALNREAVNHLPRELIFQVWQRSWRYWHDDQGMSPSYTKYRYLCLMQKAVFIHFKRGCTCLGGGHGPGGWRSGPPPPPPPGLV

Variants of: B1
Details: with dcaf1_human DCAF1, Q9Y4B6
Target sequence in this assay (Q9Y4B6 whole entry): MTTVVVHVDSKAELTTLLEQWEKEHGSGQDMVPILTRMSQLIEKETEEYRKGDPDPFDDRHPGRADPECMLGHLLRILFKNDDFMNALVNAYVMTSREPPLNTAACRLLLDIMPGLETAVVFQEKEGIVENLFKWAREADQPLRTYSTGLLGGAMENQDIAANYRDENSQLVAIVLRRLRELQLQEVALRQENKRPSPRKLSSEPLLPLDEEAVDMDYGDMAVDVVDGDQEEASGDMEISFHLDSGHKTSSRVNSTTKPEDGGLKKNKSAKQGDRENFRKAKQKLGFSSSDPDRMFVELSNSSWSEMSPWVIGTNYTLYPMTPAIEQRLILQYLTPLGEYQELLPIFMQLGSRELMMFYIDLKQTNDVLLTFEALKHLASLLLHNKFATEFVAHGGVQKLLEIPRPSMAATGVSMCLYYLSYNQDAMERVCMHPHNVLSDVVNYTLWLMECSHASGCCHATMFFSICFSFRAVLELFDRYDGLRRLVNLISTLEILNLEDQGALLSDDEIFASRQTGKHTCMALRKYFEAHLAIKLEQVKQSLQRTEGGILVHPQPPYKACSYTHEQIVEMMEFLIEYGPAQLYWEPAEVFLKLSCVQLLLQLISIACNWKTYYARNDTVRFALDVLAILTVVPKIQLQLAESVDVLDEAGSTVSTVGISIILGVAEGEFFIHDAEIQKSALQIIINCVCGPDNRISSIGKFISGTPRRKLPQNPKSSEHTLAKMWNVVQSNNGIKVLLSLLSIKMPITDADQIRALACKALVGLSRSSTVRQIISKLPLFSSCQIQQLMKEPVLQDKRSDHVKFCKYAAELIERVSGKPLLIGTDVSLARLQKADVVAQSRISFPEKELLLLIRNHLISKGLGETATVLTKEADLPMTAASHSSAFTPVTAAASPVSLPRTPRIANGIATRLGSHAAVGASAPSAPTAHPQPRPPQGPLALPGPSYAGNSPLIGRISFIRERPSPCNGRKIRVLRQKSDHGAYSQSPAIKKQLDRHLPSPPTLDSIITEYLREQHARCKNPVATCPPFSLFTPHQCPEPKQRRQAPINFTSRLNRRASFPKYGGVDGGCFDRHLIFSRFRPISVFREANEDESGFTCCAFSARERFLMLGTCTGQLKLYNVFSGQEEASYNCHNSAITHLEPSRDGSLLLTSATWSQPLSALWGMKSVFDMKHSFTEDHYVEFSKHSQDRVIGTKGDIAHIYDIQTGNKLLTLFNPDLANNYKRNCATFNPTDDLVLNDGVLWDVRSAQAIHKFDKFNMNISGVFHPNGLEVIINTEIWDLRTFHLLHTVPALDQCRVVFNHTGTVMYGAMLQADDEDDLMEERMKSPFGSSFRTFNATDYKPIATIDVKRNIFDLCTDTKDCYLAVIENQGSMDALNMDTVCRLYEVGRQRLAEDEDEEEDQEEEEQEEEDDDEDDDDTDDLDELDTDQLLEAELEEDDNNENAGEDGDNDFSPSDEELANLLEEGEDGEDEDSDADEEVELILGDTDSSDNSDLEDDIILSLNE

Variant | effect of a mutation on the interaction
K77A | disrupting interaction

Variants of: B1
Details: with dcaf1_human DCAF1, Q9Y4B6
Remark: another data set of the same source
Target sequence in this assay (Q9Y4B6 whole entry): as above

Variant | effect of a mutation on the interaction
Q76R | disrupting interaction

Variants of: B2
Details: with dcaf1_human DCAF1, Q9Y4B6
Target sequence in this assay (Q9Y4B6 whole entry): as above

Variant | effect of a mutation on the interaction
Q76R | disrupting interaction

— IntAct's records for PubMed 19264781
